Measured values reported in PMC7723274.
No end group written: not given here.

Key:
[1] = target: hexon HVR1 chimera virion (HAdV-5 with hexon HVR1 replaced by that of HAdV-64) (human adenovirus 5 (HAdV-5) | human adenovirus 64 (HAdV-64)) (UniProt P04133)
[2] = target: HAdV-64 virion (E3 deleted, replication-competent HAdV-64 virus containing a CMV-eGFP ORF, WT HAdV-64 capsid) (human adenovirus 64 (HAdV-64))
[3] = target: HAdV-5 virion (E1/E3-deleted, replication-defective HAdV-5 vector with an eGFP cassette) (human adenovirus 5 (HAdV-5)) (UniProt P04133)
[4] = target: C4 vertex chimera virion (HAdV-5 with penton base residues 288 to 571 from HAdV-64 and the DTET to GYAR mutation in fiber) (human adenovirus 5 (HAdV-5) | human adenovirus 64 (HAdV-64)) (UniProt P04133)
[5] = target: hexon HVR1 chimera virion (HAdV-5 with hexon HVR1 replaced by that of HAdV-64) (human adenovirus 5 (HAdV-5) | human adenovirus 64 (HAdV-64)) (UniProt P04133); remark: listed apart in the source
[6] = target: HAdV-5 virion (E1/E3-deleted, replication-defective HAdV-5 vector with an eGFP cassette) (human adenovirus 5 (HAdV-5)) (UniProt P04133); remark: listed apart in the source
[7] = target: hexon HVR1/C4 vertex chimera virion (C4 chimera with hexon HVR1 replaced by that of HAdV-64) (human adenovirus 5 (HAdV-5) | human adenovirus 64 (HAdV-64)) (UniProt P04133)
[8] = target: C4 vertex chimera virion (HAdV-5 with penton base residues 288 to 571 from HAdV-64 and the DTET to GYAR mutation in fiber) (human adenovirus 5 (HAdV-5) | human adenovirus 64 (HAdV-64)) (UniProt P04133); assay: co-sedimentation; 2.5 μg purified virus with 20 μM HD5 in 150 mM NaCl, 20 mM Tris, 5% glycerol, 1 mM MgCl2, on ice 45 min; discontinuous Histodenz gradient, 4°C, virus band collected; SDS-PAGE, fluorescent stain; HD5 normalised to proteins V and VII and read against a standard curve
[9] = target: hexon HVR1 chimera virion (HAdV-5 with hexon HVR1 replaced by that of HAdV-64) (human adenovirus 5 (HAdV-5) | human adenovirus 64 (HAdV-64)) (UniProt P04133); assay: as above
[10] = target: HAdV-5 virion (E1/E3-deleted, replication-defective HAdV-5 vector with an eGFP cassette) (human adenovirus 5 (HAdV-5)) (UniProt P04133); assay: as above
[11] = target: HAdV-64 virion (E3 deleted, replication-competent HAdV-64 virus containing a CMV-eGFP ORF, WT HAdV-64 capsid) (human adenovirus 64 (HAdV-64)); assay: as above

B1: Human defensin 5 (peptide)
peptide: ATCYCRTGRCATRESLSGVCEISGRLYRLCCR
modifications: not fully specified; cysteine pairing not given here
B1 was tested. Which HD5 IC50 of infection on A549 cells, against HAdV-5 (fold over HAdV-5) [1] did it give?
Its HD5 IC50 of infection on A549 cells, against HAdV-5 (fold over HAdV-5) is 5.

And the infectivity on A549 cells of virus incubated with 5 μM or 10 μM HD5 (protocol 1) [2]?
Its infectivity on A549 cells of virus incubated with 5 μM or 10 μM HD5 (protocol 1) is 4 to 5 fold.

And the binding of AF488-labeled virus to A549 cells after pre-incubation with 2.5, 5 and 10 μM HD5, fold change in GMF against no HD5 [3]?
The binding of AF488-labeled virus to A549 cells after pre-incubation with 2.5, 5 and 10 μM HD5, fold change in GMF against no HD5 was 1.4 to 2.1 fold.

What about the HD5 concentration at which 50% of fiber stays capsid-associated after heating to 49.3°C (fully associated at 20 μM HD5) [4] of the same binder?
The HD5 concentration at which 50% of fiber stays capsid-associated after heating to 49.3°C (fully associated at 20 μM HD5) was 5 µM.

What about the HD5 concentration at which 50% of fiber stays capsid-associated after heating to 48°C, against HAdV-5 (fully associated at 20 μM HD5) (fold higher than HAdV-5) [5] of the same binder?
The HD5 concentration at which 50% of fiber stays capsid-associated after heating to 48°C, against HAdV-5 (fully associated at 20 μM HD5) (fold higher than HAdV-5) was greater than 2.

And the HD5 concentration at which 50% of fiber stays capsid-associated after heating to 48°C (fully associated at 20 μM HD5) [6]?
The HD5 concentration at which 50% of fiber stays capsid-associated after heating to 48°C (fully associated at 20 μM HD5) was 5 µM.

And the HD5 concentration at which 50% of fiber stays capsid-associated after heating to 49.3°C, against HAdV-5 (fully associated at 20 μM HD5) (fold lower than HAdV-5) [7]?
The HD5 concentration at which 50% of fiber stays capsid-associated after heating to 49.3°C, against HAdV-5 (fully associated at 20 μM HD5) (fold lower than HAdV-5) was 2.

What about the fold more HD5 bound per virion than to HAdV-5 (fold more than HAdV-5) [8] of the same binder?
The fold more HD5 bound per virion than to HAdV-5 (fold more than HAdV-5) was 2.3.

What about the fold less HD5 bound per virion than to HAdV-5 (fold less than HAdV-5) [9] of the same binder?
Its fold less HD5 bound per virion than to HAdV-5 (fold less than HAdV-5) is 5.

What about the stoichiometry N (molecules of HD5 per virion) [10] of the same binder?
Its stoichiometry N (molecules of HD5 per virion) is 7090.

And the fold less HD5 bound per virion than to HAdV-5 (fold less than HAdV-5) [11]?
The fold less HD5 bound per virion than to HAdV-5 (fold less than HAdV-5) was 83.
